Experimental data published in patent US20230357354A1, “CD38-BINDING CD31 PEPTIDES AND USES THEREOF” (ENCEFA, priority 2020, published 2023).

Molecular target: recombinant His-tagged CD38 (Homo sapiens, UniProt P28907)
Experiment: Pepscan-based ELISA of His-tagged CD38 on CD31 peptide arrays
Assay type: binding
Details: mimic type BET (β-turn mimic, mP2 CLIPS); sample with the highest signal
From the text: Different sets of sCD31 peptides were synthesized according to the following designs. Note that actual order of peptides on mini-cards in some was randomized. • Set #1 • Mimic type: linear • Label: LIN15 • Linear peptides of 15 consecutive amino acid residues in length, derived from the target sequence of sCD31 with an offset of […]. • Set #2 • Mimic type: single loop (mP2 CLIPS) • Label: LOOP7 • Constrained peptides of 9 amino acid residues in length. On positions 2-8 are incorporated 7 consecutive amino acid residues derived from the target sequence of sCD31 with an offset of 1.3 residues. Cys residues were inserted on positions 1 and 9 and joined by mP2 CLIPS in order to create a loop mimic. Native Cys residues, if present, were replaced by Ser residues. • Set #3 • Mimic type: single loop, (mP2 CLIPS) • Label: LOOP15 • Constrained peptides of 17 amino acid residues in length. On positions 2-16 are incorporated 15 consecutive amino acid residues derived from the target sequence of sCD31 with an offset of […]. Cys residues were inserted on positions 1 and 17 and joined by mP2 CLIPS in order to create a loop mimic. Native Cys residues, if present, were replaced by Ser residues. • Set #4 • Mimic type: β-turn peptide mimics (mP2 CLIPS) • Label: BET • β-turn peptide mimics of 22 amino acid residues in length. On positions 2-21 are incorporated 20 consecutive amino acid residues derived from the target sequence of sCD31 with an offset of 1.3 residues. Residues on positions 11 and 12 are replaced by a Pro-Gly motif in order to induce the β-turn formation. Cys residues were inserted on positions 1 and 22 and joined by mP2 CLIPS in order to stabilize the mimic. Native Cys residues, if present, were replaced by Ser residues.
To reconstruct epitopes of sCD31, a library of peptide-based peptide mimics was synthesized using Fmoc-based solid-phase peptide synthesis. An amino functionalized polypropylene support was obtained by grafting with a hydrophilic polymer formulation, followed by reaction with t-butyloxycarbonyl-hexamethylenediamine (BocHMDA) using dicyclohexylcarbodiimide (DCC) with N-hydroxybenzotriazole (HOBt) and subsequent cleavage of the Boc-groups using trifluoroacetic acid (TFA).
Standard Fmoc-peptide synthesis was used to synthesize peptides on the amino-functionalized solid support by custom modified JANUS liquid handling stations (Perkin Elmer).
Synthesis of structural mimics was done using CLIPS technology. CLIPS technology allows to structure peptides into single loops, double loops, triple loops, sheet-like folds, helix-like folds, and combinations thereof. CLIPS templates are coupled to cysteine residues. The side-chains of multiple cysteines in the peptides are coupled to one or two CLIPS templates. For example, a 0.5 mM solution of the P2 CLIPS (2,6-bis(bromomethyl)pyridine) is dissolved in ammonium bicarbonate (20 mM, pH 7.8)/acetonitrile (1:3, v/v). This solution is added onto the peptide arrays. The CLIPS template binds to side-chains of two cysteines as present in the solid-phase bound peptides of the peptide-arrays (455 wells plate with 3-µL wells). The peptide arrays are gently shaken in the solution for 30 to 60 minutes while completely covered in solution.
Finally, the peptide arrays are washed extensively with excess of H2O and sonicated in disrupt-buffer containing 1% SDS / 0.1 % 2,2′-(ethylenedioxy)diethanethiol in PBS (pH 7.2) at 70° C. for 30 minutes, followed by sonication in H2O for another 45 minutes.
The binding of the sample (recombinant His-tagged CD38; 9 µg/mL and 20 µg/mL) to each of the synthesized peptides was tested in a pepscan-based ELISA. The peptide arrays were incubated with primary sample solution (overnight at 4° C.). […]

Point of comparison: “13 (CVESSRISKVPGIVVNITELFC; Human sCD31 peptide) [compound 13]”, “Value (binding intensity of His-tagged CD38), BET conformational peptide array” value 943 mAU. Against it:
- 10 (CMVKLKREKNPGDQNFVILEFC; Human sCD31 peptide) [compound 10] — higher, 1497 mAU
- 14 (CPPANFTIQKPGTIVSQTQDFC; Human sCD31 peptide) [compound 14] — lower, 739 mAU
- 16 (CSEVLRVKVIPGVDEVQISILC; Human CD31 peptide) [compound 16] — lower, 649 mAU

Same assay, conditions: mimic type LIN15; sample with the highest signal (His-tagged CD38 9 or 20 µg/mL)

Point of comparison: 121 (SNDPAVFKDNPTEDV) [compound 121], “Value (binding intensity of His-tagged CD38), LIN15 linear peptide array” value 410 mAU. Against it:
- 6 (NSRDQNFVILEFPVE; Human sCD31 peptide) [compound 6] — higher, 1230 mAU
- 30 (KPQHQMLFYKDDVLF) [compound 30] — lower, 355 mAU
- 32 (QHQMLFYKDDVLFYN) [compound 32] — higher, 460 mAU
- 33 (HQMLFYKDDVLFYNI) [compound 33] — higher, 441 mAU
- 36 (MLFYKDDVLFYNISS) [compound 36] — higher, 451 mAU
- 38 (LFYKDDVLFYNISSM) [compound 38] — lower, 383 mAU
- 74 (KREKNSRDQNFVILE) [compound 74] — higher, 440 mAU
- 75 (REKNSRDQNFVILEF) [compound 75] — higher, 453 mAU
- 77 (KNSRDQNFVILEFPV) [compound 77] — higher, 502 mAU
- 78 (RDQNFVILEFPVEEQ) [compound 78] — higher, 1021 mAU
- 80 (DQNFVILEFPVEEQD) [compound 80] — higher, 963 mAU
- 83 (NFVILEFPVEEQDRV) [compound 83] — higher, 631 mAU
- 100 (SSRISKVSSIVVNIT) [compound 100] — lower, 168 mAU
- 101 (RISKVSSIVVNITEL) [compound 101] — higher, 572 mAU
- 102 (ISKVSSIVVNITELF) [compound 102] — higher, 642 mAU
- 104 (KVSSIVVNITELFSK) [compound 104] — lower, 155 mAU
- 120 (NSNDPAVFKDNPTED) [compound 120] — higher, 421 mAU
- 122 (DPAVFKDNPTEDVEY) [compound 122] — lower, 402 mAU
- 123 (PAVFKDNPTEDVEYQ) [compound 123] — lower, 333 mAU
- 124 (VFKDNPTEDVEYQCV) [compound 124] — lower, 303 mAU
- 168 (KQKASKEQEGEYYCT) [compound 168] — lower, 337 mAU
- 169 (QKASKEQEGEYYCTA) [compound 169] — lower, 316 mAU
- 170 (ASKEQEGEYYCTAFN) [compound 170] — lower, 400 mAU
- 171 (SKEQEGEYYCTAFNR) [compound 171] — higher, 454 mAU
- 172 (EQEGEYYCTAFNRAN) [compound 172] — lower, 340 mAU

Same assay, conditions: mimic type LOOP7 (single loop, mP2 CLIPS); sample with the highest signal

Point of comparison: 192 (CTAEYQVLC) [compound 192], “Value (binding intensity of His-tagged CD38), LOOP7 conformational peptide array” value 492 mAU. Against it:
- 5 (CSTESYFIC; Human sCD31 peptide) [compound 5] — higher, 668 mAU
- 167 (CEDVEYQSC) [compound 167] — higher, 804 mAU
- 173 (CNLTLQSFC) [compound 173] — lower, 370 mAU
- 174 (CTLQSFADC) [compound 174] — lower, 427 mAU
- 175 (CLQSFADVC) [compound 175] — higher, 561 mAU
- 176 (CQSFADVSC) [compound 176] — lower, 413 mAU
- 177 (CSFADVSTC) [compound 177] — lower, 390 mAU
- 178 (CMLFYKDDC) [compound 178] — higher, 542 mAU
- 179 (CLFYKDDVC) [compound 179] — higher, 604 mAU
- 180 (CYKDDVLFC) [compound 180] — higher, 585 mAU
- 181 (CKDDVLFYC) [compound 181] — higher, 579 mAU
- 182 (CDDVLFYNC) [compound 182] — higher, 702 mAU
- 183 (CVLFYNISC) [compound 183] — higher, 502 mAU
- 184 (CKSTESYFC) [compound 184] — lower, 339 mAU
- 185 (CTESYFIPC) [compound 185] — higher, 549 mAU
- 186 (CSYFIPEVC) [compound 186] — lower, 400 mAU
- 187 (CYFIPEVRC) [compound 187] — higher, 523 mAU
- 188 (CFIPEVRIC) [compound 188] — lower, 414 mAU
- 189 (CEVRIYDSC) [compound 189] — higher, 642 mAU
- 190 (CVRIYDSGC) [compound 190] — lower, 479 mAU
- 191 (CRIYDSGTC) [compound 191] — lower, 395 mAU
- 193 (CAEYQVLVC) [compound 193] — higher, 508 mAU
- 194 (CEYQVLVEC) [compound 194] — higher, 651 mAU
- 195 (CDQNFVILC) [compound 195] — higher, 628 mAU
- 196 (CQNFVILEC) [compound 196] — higher, 942 mAU
- 197 (CVILEFPVC) [compound 197] — higher, 527 mAU
- 198 (CILEFPVEC) [compound 198] — higher, 537 mAU
- 199 (CLAQEFPEC) [compound 199] — lower, 412 mAU
- 200 (CAQEFPEIC) [compound 200] — lower, 429 mAU
- 201 (CQEFPEIIC) [compound 201] — lower, 476 mAU
- 202 (CFPEIIIQC) [compound 202] — higher, 596 mAU
- 203 (CSSIVVNIC) [compound 203] — lower, 364 mAU
- 204 (CSIVVNITC) [compound 204] — lower, 387 mAU
- 205 (CIVVNITEC) [compound 205] — higher, 630 mAU

Same assay, conditions: mimic type LOOP15 (single loop, mP2 CLIPS); sample with the highest signal

Point of comparison: “9 (CRDQNFVILEFPVEEQC; Human sCD31 peptide) [compound 9]”, “Value (binding intensity of His-tagged CD38), LOOP15 conformational peptide array” value 1110 mAU. Against it:
- 164 (CNSRDQNFVILEFPVEC) [compound 164] — lower, 965 mAU
